Data as given in article PMC8266636, “Rrp1 translocase and ubiquitin ligase activities restrict the genome destabilising effects of Rad51 in fission yeast” (Nucleic Acids Research, 2020).
Each block holds one binder with its values, some of them ahead of it.

What was measured:
[1] = molecular target: T1, Rrp1-FLAG (purified recombinant) (S. pombe, UniProt O13762 1-897); test: co-IP; purified Rad51 and FLAG-tagged Rrp1 (250 nM each) in IP buffer (35 mM Tris-HCl pH 7.5, 1 mM DTT, 100 mM NaCl, 3.5 mM MgCl2, 0.1% NP-40, 5% glycerol), 30 min at 30°C; precipitated with anti-FLAG M2 affinity gel 2 h at 4°C, eluted with 3xFLAG peptide, western blot; conditions: both partners purified
T1 construct: Rrp1 of Schizosaccharomyces pombe, rrp1+ in pGEX-6P; only the former was removed'; read here as GST-Rrp1-3xFLAG; GST removed with HRV-3C protease; also called purified Rrp1-FLAG; FLAG-tagged Rrp1; source: E. coli Rosetta, from pGEX-6P, purified (GSH sepharose, HiTrap Heparin, Resource Q, HiTrap SP); not shown: GST, N-terminal, cleaved; 3xFLAG, C-terminal, kept
T1 sequence (looked up): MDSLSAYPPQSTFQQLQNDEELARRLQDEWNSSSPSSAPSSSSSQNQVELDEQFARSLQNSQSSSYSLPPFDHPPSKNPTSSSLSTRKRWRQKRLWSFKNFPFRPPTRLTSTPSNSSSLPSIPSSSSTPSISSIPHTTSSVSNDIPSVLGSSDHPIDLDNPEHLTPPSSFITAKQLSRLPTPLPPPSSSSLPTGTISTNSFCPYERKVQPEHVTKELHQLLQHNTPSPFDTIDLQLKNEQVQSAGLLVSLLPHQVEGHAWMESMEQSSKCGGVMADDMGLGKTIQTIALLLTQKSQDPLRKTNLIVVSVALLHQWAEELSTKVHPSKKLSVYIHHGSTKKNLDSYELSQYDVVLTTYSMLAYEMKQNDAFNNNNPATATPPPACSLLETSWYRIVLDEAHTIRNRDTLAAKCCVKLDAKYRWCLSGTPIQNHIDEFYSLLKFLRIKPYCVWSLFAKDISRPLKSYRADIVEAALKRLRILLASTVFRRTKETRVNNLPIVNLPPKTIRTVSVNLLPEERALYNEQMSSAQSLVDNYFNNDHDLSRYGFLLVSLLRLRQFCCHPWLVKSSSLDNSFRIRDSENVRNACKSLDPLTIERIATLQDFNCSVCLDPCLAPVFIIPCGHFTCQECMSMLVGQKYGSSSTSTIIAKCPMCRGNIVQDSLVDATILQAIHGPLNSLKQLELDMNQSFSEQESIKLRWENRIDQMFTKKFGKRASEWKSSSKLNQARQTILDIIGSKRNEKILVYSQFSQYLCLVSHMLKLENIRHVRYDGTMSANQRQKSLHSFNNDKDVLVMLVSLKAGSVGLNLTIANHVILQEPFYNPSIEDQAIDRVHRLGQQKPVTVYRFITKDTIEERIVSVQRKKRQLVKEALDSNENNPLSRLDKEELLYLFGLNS

[2] = molecular target: T2, Rrp1;Rad51 (Schizosaccharomyces …, UniProt O13762;P36601 1-897;1-365, |); test: fluorescence anisotropy; 2 mM ATP; 3.5 mM Mg2+; scavenger PhiX174 ssDNA; EMSA: 25 mM HEPES pH 7.5, 1 mM DTT, 60 mM KCl, 2 mM ATP, 3.5 mM MgCl2, 5% glycerol, 37 C, 0.2% glutaraldehyde; anisotropy: 30 mM HEPES pH 7.5, 1 mM DTT, 50 mM NaCl, 100 mM KCl, 2 mM ATP, 8 mM PC, 8 U/ml CPK, 3.5 mM MgCl2, 2.5% glycerol, 37 C; conditions: protein: recombinant;recombinant; tags: 3xFLAG (methods: N-terminal 3xFLAG and C-terminal GST, but construct named GST-Rrp1-FLAG); GST removed by HRV-3C;; single strand
T2 sequence 1: T1 sequence (looked up)
T2 sequence 2: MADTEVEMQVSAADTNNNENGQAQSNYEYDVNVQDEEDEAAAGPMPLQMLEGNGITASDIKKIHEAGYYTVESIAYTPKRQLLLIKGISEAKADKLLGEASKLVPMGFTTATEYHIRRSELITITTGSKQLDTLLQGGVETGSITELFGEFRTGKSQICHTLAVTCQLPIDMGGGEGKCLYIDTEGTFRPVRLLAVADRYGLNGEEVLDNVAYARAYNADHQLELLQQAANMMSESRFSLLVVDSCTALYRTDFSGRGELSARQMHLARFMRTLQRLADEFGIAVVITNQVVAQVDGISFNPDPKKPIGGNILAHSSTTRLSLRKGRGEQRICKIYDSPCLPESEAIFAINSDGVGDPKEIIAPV

[3] = molecular target: T3, Rad51 (Schizosaccharomyces pombe, UniProt P36601 1-365); test: fluorescence anisotropy; 2 mM ATP; 3.5 mM Mg2+; 6 uM Rad51; scavenger ssDNA for koff; EMSA: 25 mM HEPES pH 7.5, 1 mM DTT, 60 mM KCl, 2 mM ATP, 3.5 mM MgCl2, 5% glycerol, 37 C, 0.2% glutaraldehyde; anisotropy: 30 mM HEPES pH 7.5, 1 mM DTT, 50 mM NaCl, 100 mM KCl, 2 mM ATP, 8 mM PC, 8 U/ml CPK, 3.5 mM MgCl2, 2.5% glycerol, 37 C; conditions: protein: recombinant; label: 5'-TAMRA on 16A(-); blunt
T3 sequence: T2 sequence 2

binding result [1]: binds
B1: Rad51 (purified) (natural protein, S. pombe, UniProt P36601 1-365, looked up)
chain: T2 sequence 2
notes: Rad51 of Schizosaccharomyces pombe; also called purified Rad51

B2: oligo-dT 72-mer (ssDNA)
DNA: TTTTTTTTTTTTTTTTTTTTTTTTTTTTTTTTTTTTTTTTTTTTTTTTTTTTTTTTTTTTTTTTTTTTTTTT
binding result [2]: binds

B3: 16A(-)/16A(+) 83-mer dsDNA (dsDNA)
DNA 1: AAATGAACATAAAGTAAATAAGTATAAGGATAATACAAAATAAGTAAATGAATAAACATAGAAAATAAAGTAAAGGATATAAA
DNA 2: TTTATATCCTTTACTTTATTTTCTATGTTTATTCATTTACTTATTTTGTATTATCCTTATACTTATTTACTTTATGTTCATTT
binding result [3]: binds
